Experimental data from PMC12232546 (Proceedings of the National Academy of Sciences of the …, 2025).

Biological target: VASP-EVH1 (human VASP aa1-115, GST cleaved with thrombin) (human, UniProt P50552 1-115)
Experiment: ITC

VASP-EVH1 (human VASP aa1-115, GST cleaved with thrombin), sequence (P50552 1-115): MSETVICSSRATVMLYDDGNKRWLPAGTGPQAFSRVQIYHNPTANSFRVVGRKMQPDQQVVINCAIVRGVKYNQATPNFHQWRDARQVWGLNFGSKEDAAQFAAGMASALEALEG

B1: 15-mer WAVE2-derived peptide Ac-SEDNLPPPPAEFSYP-NH2 (peptide)
peptide: Ac-SEDNLPPPPAEFSYP-NH2
- Kd: 250 µM
